Molecular target: Rac1V12, pre-loaded with [γ-32P] GTP (UniProt P63000 1-192)
Assay: overlay assay, immobilised Myc-tagged kinase probed with [γ-32P] GTP-loaded GTPase
Source text: PAK4 and PAK5 interact with activated Rac and Cdc42. 293 cells were transfected with equal amounts of expression vectors, encoding the following Myc-tagged proteins: wild type PAK4 (Myc-PAK4), wild type PAK5 (Myc-PAK5), or PAK5ΔGBD. After transient expression, the Myc-tagged proteins were immunoprecipitated from whole cell lysates using a mouse anti-Myc antibody and protein A sepharose. The immunocomplexes were separated by SDS-PAGE and transferred to a PVDF membrane. The membranes were then probed with purified RhoV14, Rac1V12 or Cdc42V12, as indicated. The GTPases were pre-loaded with [γ-^32P] GTP as described in the Materials and Methods. A portion of the lysate was used for Western blot analysis (WB) with an anti-Myc antibody to measure the amount of each transfected protein in the lysates.
The overlay assay is described in (27). Briefly, 293 cells were transfected with 10 µg of empty vector, MycPAK4, or Myc-PAK5. PAK4 and PAK5 were then immunopurified using anti-Myc antibody (9E10, Santa Cruz) and the immunopurified proteins were separated on SDS-PAGE and transferred to a PVDF membrane. The membrane was then washed and blocked with phosphate-buffered saline (PBS) containing 1% bovine serum albumin (BSA) and 100 mM dithiothreitol (DTT). Recombinant GTPases (2 µg) were pre-loaded with [γ-^32P] GTP and were incubated for 5 min with the PVDF membrane. […]

binding result: binds
B1: Myc-tagged wild type PAK5 (human p21-activated kinase 5) (enzyme, not shown: small tags and cut ends)
chain: MFGKKKKKIEISGPSNFEHRVHTGFDPQEQKFTGLPQQWHSLLADTANRPKPMVDPSCITPIQLAPMKTIVRGNKPCKETSINGLLEDFDNISVTRSNSLRKESPPTPDQGASSHGPGHAEENGFITFSQYSSESDTTADYTTEKYREKSLYGDDLDPYYRGSHAAKQNGHVMKMKHGEAYYSEVKPLKSDFARFSADYHSHLDSLSKPSEYSDLKWEYQRASSSSPLDYSFQFTPSRTAGTSGCSKESLAYSESEWGPSLDDYDRRPKSSYLNQTSPQPTMRQRSRSGSGLQEPMMPFGASAFKTHPQGHSYNSYTYPRLSEPTMCIPKVDYDRAQMVLSPPLSGSDTYPRGPAKLPQSQSKSGYSSSSHQYPSGYHKATLYHHPSLQSSSQYISTASYLSSLSLSSSTYPPPSWGSSSDQQPSRVSHEQFRAALQLVVSPGDPREYLANFIKIGEGSTGIVCIATEKHTGKQVAVKKMDLRKQQRRELLFNEVVIMRDYHHDNVVDMYSSYLVGDELWVVMEFLEGGALTDIVTHTRMNEEQIATVCLSVLRALSYLHNQGVIHRDIKSDSILLTSDGRIKLSDFGFCAQVSKEVPKRKSLVGTPYWMAPEVISRLPYGTEVDIWSLGIMVIEMIDGEPPYFNEPPLQAMRRIRDSLPPRVKDLHKVSSVLRGFLDLMLVREPSQRATAQELLGHPFLKLAGPPSCIVPLMRQYRHH
notes: also called Myc-PAK5

— patent US7482138 (TRUSTEES OF COLUMBIA UNIVERSITY IN THE CITY OF NEW YORK, dated 2009)
